In patent US20180335433A1 (LA JOLLA INSTITUTE FOR ALLERGY AND IMMUNOLOGY, published 2018):

Assays:
[1] = molecular target: T1, CD28, endogenous in primary mouse CD4+ T cells (mouse, UniProt P31041 20-218); assay: anti-CD28 co-IP, stimulated transduced PKCθ-/- T cells (FIG. 4c)
T1 construct: whole, on cells; Immunoprecipitated with anti-CD28 mAb from lysates of retrovirally transduced mouse T cells; also called murine CD28

[2] = molecular target: T2, SH3-inactivated (W97A) Lck (UniProt P06239 2-509, limits assumed); assay: anti-Myc IP from stimulated JCam1.6 cells reconstituted with Lck W97A, immunoblot for Lck (FIG. 12)
T2 construct: whole, on cells; also called Lck W97A
T2 sequence (P06239 2-509 W97A limits assumed): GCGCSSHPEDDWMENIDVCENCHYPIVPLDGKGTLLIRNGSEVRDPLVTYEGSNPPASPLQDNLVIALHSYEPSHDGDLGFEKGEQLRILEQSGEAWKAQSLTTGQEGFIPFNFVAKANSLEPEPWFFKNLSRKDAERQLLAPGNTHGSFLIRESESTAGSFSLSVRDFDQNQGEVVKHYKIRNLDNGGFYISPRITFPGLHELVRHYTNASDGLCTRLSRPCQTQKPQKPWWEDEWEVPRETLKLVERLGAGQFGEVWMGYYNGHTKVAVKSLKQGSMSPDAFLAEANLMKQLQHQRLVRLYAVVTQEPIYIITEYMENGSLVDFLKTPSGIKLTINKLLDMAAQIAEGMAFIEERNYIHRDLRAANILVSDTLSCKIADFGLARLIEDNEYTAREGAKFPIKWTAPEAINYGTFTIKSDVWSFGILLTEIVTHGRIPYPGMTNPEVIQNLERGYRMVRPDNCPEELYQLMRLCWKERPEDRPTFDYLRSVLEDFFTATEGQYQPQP
Description: FIG. 12 Interaction between CD28 and the V3 of PKCθ is Lck-dependent. PKCθ-Lck-CD28 association in Lck-deficient (JCam1.6) Jurkat cells cotransfected with Myc-tagged PKCθ−V3 plus WT Lck or its indicated mutants, Transfected cells were stimulated with anti-CD3 and anti-CD28 for 5 min, immunoprecipitated with an anti-Myc Ab, and immunoblotted for Lck and endogenous CD28. Data are from three experiments.

T1 sequence (P31041 20-218): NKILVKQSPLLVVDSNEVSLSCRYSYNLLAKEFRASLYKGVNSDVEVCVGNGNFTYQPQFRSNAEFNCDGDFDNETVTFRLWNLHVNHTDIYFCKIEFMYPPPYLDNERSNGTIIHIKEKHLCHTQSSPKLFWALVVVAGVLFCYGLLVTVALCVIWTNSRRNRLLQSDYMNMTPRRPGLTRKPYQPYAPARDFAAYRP

| Binder | binding result [1] | binding result [2] |
| --- | --- | --- |
| PKCθ P330/1/4/6A (4P-A; all four Pro residues of the PR motif mutated to alanine) (enzyme) MSPFLRIGLSNFDCGSCQSCQGEAVNPYCAVLVKEYVESENGQMYIQKKPTMYPPWDSTFDAHINKGRVMQIIVKGKNVDLISETTVELYSLAERCRKNNGKTEIWLELKPQGRMLMNARYFLEMSDTKDMNEFETEGFFALHQRRGAIKQAKVHHVKCHEFTATFFPQPTFCSVCHEFVWGLNKQGYQCRQCNAAIHKKCIDKVIAKCTGSAINSRETMFHKERFKIDMPHRFKVYNYKSPTFCEHCGTLLWGLARQGLKCDACGMNVHHRCQTKVANLCGINQKLMAEALAMIESTQQARCLRDTEQIFREGPVEIGLPCSIKNEARAACLATAGKREPQGISWESPLDEVDKMCHLPEPELNKERPSLQIKLKIEDFILHKMLGKGSFGKVFLAEFKKTNQFFAIKALKKDVVLMDDDVECTMVEKRVLSLAWEHPFLTHMFCTFQTKENLFFVMEYLNGGDLMYHIQSCHKFDLSRATFYAAEIILGLQFLHSKGIVYRDLKLDNILLDKDGHIKIADFGMCKENMLGDAKTNTFCGTPDYIAPEILLGQKYNHSVDWWSFGVLLYEMLIGQSPFHGQDEEELFHSIRMDNPFYPRWLEKEAKDLLVKLFVREPEKRLGVRGDIRQHPLFREINWEELERKEIDPPFRPKVKSPFDCSNFDKEFLNEKPRLSFADRALINSMDQNMFRNFSFMNPGMERLIS | no binding | – |
| Myc-tagged PKCθ V3 domain (aa 282-379 of human PKCθ, N-terminal Myc tag) (other, also called Myc-tagged V3; isolated V3 domain; not shown: N-terminal Myc tag of the pMIG vector) GINQKLMAEALAMIESTQQARCLRDTEQIFREGPVEIGLPCSIKNEARPPCLPTPGKREPQGISWESPLDEVDKMCHLPEPELNKERPSLQIKLKIED | – | no binding |
